Assays:
[1] = target: Feline_OSMR_hlgG1_Fc (feline); experiment: SPR Biacore
[2] = target: Feline_OSMR_hlgG1_Fc (feline); experiment: indirect ELISA, fOSMR coated; OD ratio to antibody expression control

Feline_OSMR_hlgG1_Fc (feline), sequence (chain, as listed by the source limits assumed, form in doubt): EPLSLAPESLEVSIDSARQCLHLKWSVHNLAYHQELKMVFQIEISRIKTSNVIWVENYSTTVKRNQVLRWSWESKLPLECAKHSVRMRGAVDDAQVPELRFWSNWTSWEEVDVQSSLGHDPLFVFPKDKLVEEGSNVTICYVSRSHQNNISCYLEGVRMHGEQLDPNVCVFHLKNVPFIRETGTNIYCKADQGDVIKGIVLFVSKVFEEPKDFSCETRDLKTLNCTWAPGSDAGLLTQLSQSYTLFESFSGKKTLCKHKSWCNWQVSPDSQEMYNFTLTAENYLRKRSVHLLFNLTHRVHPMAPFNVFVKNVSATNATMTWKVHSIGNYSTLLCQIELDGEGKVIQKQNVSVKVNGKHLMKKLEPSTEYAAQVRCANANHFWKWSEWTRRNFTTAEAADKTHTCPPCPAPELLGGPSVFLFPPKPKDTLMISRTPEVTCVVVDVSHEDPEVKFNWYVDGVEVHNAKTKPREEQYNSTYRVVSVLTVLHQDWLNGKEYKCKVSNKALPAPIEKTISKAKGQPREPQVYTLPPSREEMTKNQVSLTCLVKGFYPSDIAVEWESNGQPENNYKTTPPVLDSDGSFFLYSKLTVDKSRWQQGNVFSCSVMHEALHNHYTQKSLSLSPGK

Kd [1] [nM]	koff [1] [s⁻¹]	kon [1] [M⁻¹ s⁻¹]	ELISA ratio [2] [OD ratio]	Binder
0.449	5.79e-05	129000	0	Mu_02D09_VH (SEQ ID NO: 31)_R104A (antibody, V domains shown) VH: EVQLVESGGGLVKPGGSLTLSCAASGFTFSDYGMHWLRQAPEKGLEWVAYISSGSRAVFFADTVKGRFTISRDNAKNTLFLQMTSLRSDDTAMYYCARDRYDGAGFAYWGQGTLVTVSA VL: DIVLTQSPATLSVTPGDSVSLSCRASQSISNNLHWYQQTSHESPRLLITYASQSISGIPSRFSGSGSGTDFTLSINSVETEDFGMYFCQQSNSWPLTFGAGTKLELKR
0.000648	2.85e-07	440000	1.27	Mu_02D09_VL (SEQ ID NO: 33)_L96A (antibody, V domains shown) VH: EVQLVESGGGLVKPGGSLTLSCAASGFTFSDYGMHWLRQAPEKGLEWVAYISSGSRAVFFADTVKGRFTISRDNAKNTLFLQMTSLRSDDTAMYYCARDRYDGRGFAYWGQGTLVTVSA VL: DIVLTQSPATLSVTPGDSVSLSCRASQSISNNLHWYQQTSHESPRLLITYASQSISGIPSRFSGSGSGTDFTLSINSVETEDFGMYFCQQSNSWPATFGAGTKLELKR
7.26	0.00113	155000	0.377	Mu_02D09_VL (SEQ ID NO: 33)_I29A (antibody, V domains shown) VH: EVQLVESGGGLVKPGGSLTLSCAASGFTFSDYGMHWLRQAPEKGLEWVAYISSGSRAVFFADTVKGRFTISRDNAKNTLFLQMTSLRSDDTAMYYCARDRYDGRGFAYWGQGTLVTVSA VL: DIVLTQSPATLSVTPGDSVSLSCRASQSASNNLHWYQQTSHESPRLLITYASQSISGIPSRFSGSGSGTDFTLSINSVETEDFGMYFCQQSNSWPLTFGAGTKLELKR
0.000765	7.94e-08	104000	0	Mu_02D09_VL (SEQ ID NO: 33)_W94A (antibody, V domains shown) VH: EVQLVESGGGLVKPGGSLTLSCAASGFTFSDYGMHWLRQAPEKGLEWVAYISSGSRAVFFADTVKGRFTISRDNAKNTLFLQMTSLRSDDTAMYYCARDRYDGRGFAYWGQGTLVTVSA VL: DIVLTQSPATLSVTPGDSVSLSCRASQSISNNLHWYQQTSHESPRLLITYASQSISGIPSRFSGSGSGTDFTLSINSVETEDFGMYFCQQSNSAPLTFGAGTKLELKR
1.37	0.00104	756000	1.05	Mu_09E09_VH (SEQ ID NO: 35)_S35A (antibody, V domains shown) VH: DVKLVESGEGLVKPGGSLKLSCAASGFTFSSYAMAWVRQTPEKRLEWVAYISSGGDYIYYADTVKGRFTISRDNARNTLYLQMSSLKSEDTAMYYCTRDPITGTFAYWGQGTLVTVSA VL: DLQMTQTTSSLSASLGDRVTISCRASQDINNYLNWYQQKPDGTVKLLIYYTSTLHSGVPSRFSGSGSGTDYSLTISNLEQEDIATYFCQQGNTLPWTFGGGTKLEIKR
1.76	0.00108	612000	0.908	Mu_09E09_VH (SEQ ID NO: 35)_D99A (antibody, V domains shown) VH: DVKLVESGEGLVKPGGSLKLSCAASGFTFSSYAMSWVRQTPEKRLEWVAYISSGGDYIYYADTVKGRFTISRDNARNTLYLQMSSLKSEDTAMYYCTRAPITGTFAYWGQGTLVTVSA VL: DLQMTQTTSSLSASLGDRVTISCRASQDINNYLNWYQQKPDGTVKLLIYYTSTLHSGVPSRFSGSGSGTDYSLTISNLEQEDIATYFCQQGNTLPWTFGGGTKLEIKR
1.94	0.00187	964000	0.388	Mu_09E09_VH (SEQ ID NO: 35)_T102A (antibody, V domains shown) VH: DVKLVESGEGLVKPGGSLKLSCAASGFTFSSYAMSWVRQTPEKRLEWVAYISSGGDYIYYADTVKGRFTISRDNARNTLYLQMSSLKSEDTAMYYCTRDPIAGTFAYWGQGTLVTVSA VL: DLQMTQTTSSLSASLGDRVTISCRASQDINNYLNWYQQKPDGTVKLLIYYTSTLHSGVPSRFSGSGSGTDYSLTISNLEQEDIATYFCQQGNTLPWTFGGGTKLEIKR
2.54	0.0024	943000	0.052	Mu_09E09_VH (SEQ ID NO: 35)_Y57A (antibody, V domains shown) VH: DVKLVESGEGLVKPGGSLKLSCAASGFTFSSYAMSWVRQTPEKRLEWVAYISSGGDAIYYADTVKGRFTISRDNARNTLYLQMSSLKSEDTAMYYCTRDPITGTFAYWGQGTLVTVSA VL: DLQMTQTTSSLSASLGDRVTISCRASQDINNYLNWYQQKPDGTVKLLIYYTSTLHSGVPSRFSGSGSGTDYSLTISNLEQEDIATYFCQQGNTLPWTFGGGTKLEIKR
2.85	0.00177	622000	0.31	Mu_09E09_VH (SEQ ID NO: 35)_Y50A (antibody, V domains shown) VH: DVKLVESGEGLVKPGGSLKLSCAASGFTFSSYAMSWVRQTPEKRLEWVAAISSGGDYIYYADTVKGRFTISRDNARNTLYLQMSSLKSEDTAMYYCTRDPITGTFAYWGQGTLVTVSA VL: DLQMTQTTSSLSASLGDRVTISCRASQDINNYLNWYQQKPDGTVKLLIYYTSTLHSGVPSRFSGSGSGTDYSLTISNLEQEDIATYFCQQGNTLPWTFGGGTKLEIKR
2.4	0.00186	772000	0.256	Mu_09E09_VH (SEQ ID NO: 35)_F105A (antibody, V domains shown) VH: DVKLVESGEGLVKPGGSLKLSCAASGFTFSSYAMSWVRQTPEKRLEWVAYISSGGDYIYYADTVKGRFTISRDNARNTLYLQMSSLKSEDTAMYYCTRDPITGTAAYWGQGTLVTVSA VL: DLQMTQTTSSLSASLGDRVTISCRASQDINNYLNWYQQKPDGTVKLLIYYTSTLHSGVPSRFSGSGSGTDYSLTISNLEQEDIATYFCQQGNTLPWTFGGGTKLEIKR
0.632	0.00158	2.51e+06	0.092	Mu_09E09_VL (SEQ ID NO: 37)_Y32A (antibody, V domains shown) VH: DVKLVESGEGLVKPGGSLKLSCAASGFTFSSYAMSWVRQTPEKRLEWVAYISSGGDYIYYADTVKGRFTISRDNARNTLYLQMSSLKSEDTAMYYCTRDPITGTFAYWGQGTLVTVSA VL: DLQMTQTTSSLSASLGDRVTISCRASQDINNALNWYQQKPDGTVKLLIYYTSTLHSGVPSRFSGSGSGTDYSLTISNLEQEDIATYFCQQGNTLPWTFGGGTKLEIKR
1.27	0.000926	729000	0.946	Mu_09E09_VH (SEQ ID NO: 35)_P100A (antibody, V domains shown) VH: DVKLVESGEGLVKPGGSLKLSCAASGFTFSSYAMSWVRQTPEKRLEWVAYISSGGDYIYYADTVKGRFTISRDNARNTLYLQMSSLKSEDTAMYYCTRDAITGTFAYWGQGTLVTVSA VL: DLQMTQTTSSLSASLGDRVTISCRASQDINNYLNWYQQKPDGTVKLLIYYTSTLHSGVPSRFSGSGSGTDYSLTISNLEQEDIATYFCQQGNTLPWTFGGGTKLEIKR
5.02	0.00161	321000	0.023	Mu_09E09_VL (SEQ ID NO: 37)_N34A (antibody, V domains shown) VH: DVKLVESGEGLVKPGGSLKLSCAASGFTFSSYAMSWVRQTPEKRLEWVAYISSGGDYIYYADTVKGRFTISRDNARNTLYLQMSSLKSEDTAMYYCTRDPITGTFAYWGQGTLVTVSA VL: DLQMTQTTSSLSASLGDRVTISCRASQDINNYLAWYQQKPDGTVKLLIYYTSTLHSGVPSRFSGSGSGTDYSLTISNLEQEDIATYFCQQGNTLPWTFGGGTKLEIKR
2.21	0.00203	918000	0.136	Mu_09E09_VL (SEQ ID NO: 37)_G91A (antibody, V domains shown) VH: DVKLVESGEGLVKPGGSLKLSCAASGFTFSSYAMSWVRQTPEKRLEWVAYISSGGDYIYYADTVKGRFTISRDNARNTLYLQMSSLKSEDTAMYYCTRDPITGTFAYWGQGTLVTVSA VL: DLQMTQTTSSLSASLGDRVTISCRASQDINNYLNWYQQKPDGTVKLLIYYTSTLHSGVPSRFSGSGSGTDYSLTISNLEQEDIATYFCQQANTLPWTFGGGTKLEIKR

Source: patent US20220177594A1
